Data from doi:10.1101/2023.01.16.524289, “HuR modulation with tanshinone mimics impairs LPS response in murine macrophages”.

Biological target: rM1M2 HuR (RRM1-RRM2) (UniProt Q15717 18-186)
Experiment: HTRF; 20 nM protein, 50 nM probe; TM7nox inhibits with IC50 0.7956 uM (small-molecule IC50, not an affinity); REMSA: 30 min incubation, 4% native gel, buffer not given; HTRF: Cisbio protocol; pull-down: lysis in PEB (20 mM Tris-HCl pH 7.5, 100 mM KCl, 5 mM MgCl2, 0.5% NP-40), binding in TENT (20 mM Tris-HCl pH 8.0, 2 mM EDTA, 500 mM NaCl, 1% Triton X-100), 4 C
Settings: protein: recombinant; tags: His-tag; label: 5'-biotin; single strand

Chain of rM1M2 HuR (RRM1-RRM2) (Q15717 18-186): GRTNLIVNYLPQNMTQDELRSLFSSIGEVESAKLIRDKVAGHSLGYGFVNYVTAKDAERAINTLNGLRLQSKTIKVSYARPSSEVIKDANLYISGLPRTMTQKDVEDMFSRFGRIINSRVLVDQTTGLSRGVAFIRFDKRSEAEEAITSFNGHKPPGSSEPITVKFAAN

AUUAUUUAUUAUUUAUUUAUUAUUUA (ssRNA) [Bi-TNF ARE probe (26 nt)]
binding result: binds
